Numbering of substitutions follows the chain as printed.

The values that follow come from patent publication US20160031996A1 (CSL, published 2016).

Experiment [1] concerns the target T1, human IL-3Rα E51Q/S59A/P88T triple mutant, full length (human, UniProt P26951 19-378).
T1 chain: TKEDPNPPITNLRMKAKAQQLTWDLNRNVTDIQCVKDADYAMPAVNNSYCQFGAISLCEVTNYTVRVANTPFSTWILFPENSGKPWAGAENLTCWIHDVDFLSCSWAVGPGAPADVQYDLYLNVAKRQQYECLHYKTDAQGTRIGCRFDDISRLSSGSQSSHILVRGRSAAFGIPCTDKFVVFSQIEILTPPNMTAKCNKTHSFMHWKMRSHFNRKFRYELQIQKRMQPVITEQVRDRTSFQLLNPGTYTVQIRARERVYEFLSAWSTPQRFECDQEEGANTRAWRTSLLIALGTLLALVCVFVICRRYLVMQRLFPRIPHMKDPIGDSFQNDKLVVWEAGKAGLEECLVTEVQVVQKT
Description: flow cytometry, MFI normalised to WT. Here is the method:
(§1) Median fluorescence intensity (MFI) of each antibody was determined for WT IL-3Rα and for each IL-3Rα mutant. The MFI of WT IL-3Rα staining for each antibody was set as 100% then the MFI of each mutant was normalized to a percent of WT staining.
For orientation: Flow cytometry measures light scatter and fluorescence of single cells or particles in a stream.

For experiment [2], the target named is T2, human IL-3Rα E51Q/P88T double mutant, full length (human, UniProt P26951 19-378).
T2 chain: T1 chain with A41S
The experiment can be described thus: flow cytometry, MFI normalised to WT. Here is the method: as §1

Experiment [3] has as its target T3, human IL-3Rα S59A/P88T double mutant, full length (human, UniProt P26951 19-378).
T3 chain: T1 chain with Q33E
The experiment can be described thus: flow cytometry, MFI normalised to WT. Here is the method: as §1

For experiment [4], the target named is T4, human IL-3Rα E51Q/S59A double mutant, full length (human, UniProt P26951 19-378).
T4 chain: T1 chain with T70P
The experiment can be described thus: flow cytometry, MFI normalised to WT. The protocol:
as §1

Experiment [5] deals with T5, soluble human IL-3Rα 1-306-His P88A (human, UniProt P26951 19-307).
T5 construct: supernatant of 293FS cells; also called P88, soluble alanine
T5 sequence: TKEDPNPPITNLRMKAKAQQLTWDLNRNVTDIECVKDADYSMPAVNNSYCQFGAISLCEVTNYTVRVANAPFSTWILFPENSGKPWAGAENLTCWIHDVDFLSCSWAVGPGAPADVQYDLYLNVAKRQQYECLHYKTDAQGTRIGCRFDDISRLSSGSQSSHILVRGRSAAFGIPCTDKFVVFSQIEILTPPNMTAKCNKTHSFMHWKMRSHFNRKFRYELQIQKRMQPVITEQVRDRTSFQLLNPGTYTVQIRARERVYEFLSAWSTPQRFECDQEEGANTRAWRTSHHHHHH
Description: Western blot, supernatants of 293FS cells.

Experiment [6] addresses T6, soluble human IL-3Rα 1-306-His F70A (human, UniProt P26951 19-307).
T6 construct: supernatant of 293FS cells; also called F70, soluble alanine
T6 sequence: T5 sequence with F52A, A70P
The experiment can be described thus: Western blot, supernatants of 293FS cells. For orientation: Immunoblotting shows a protein as a band on a membrane.

Experiment [7] addresses T7, soluble human IL-3Rα 1-306-His R84A (human, UniProt P26951 19-307).
T7 construct: supernatant of 293FS cells; also called R84, soluble alanine
T7 sequence: T5 sequence with R66A, A70P
The experiment can be described thus: Western blot, supernatants of 293FS cells.

B1: antibody CSL362 (antibody, V domains shown)
VH: EVQLVQSGAEVKKPGESLKISCKGSGYSFTDYYMKWARQMPGKGLEWMGDIIPSNGATFYNQKFKGQVTISADKSISTTYLQWSSLKASDTAMYYCARSHLLRASWFAYWGQGTMVTVSS
VL: DIVMTQSPDSLAVSLGERATINCESSQSLLNSGNQKNYLTWYQQKPGQPPKPLIYWASTRESGVPDRFSGSGSGTDFTLTISSLQAEDVAVYYCQNDYSYPYTFGQGTKLEIKR
With B1, the “MFI as percent of WT staining” value in experiment [1] was 2.9 % of WT MFI; in experiment [2], 2.5 % of WT MFI; in experiment [3], 5 % of WT MFI; in experiment [4], 2.4 % of WT MFI. The binding result in experiment [5], in experiment [6] and in experiment [7] was “no binding” each time.

B2: monoclonal antibody 7G3 (antibody, V domains shown)
VH: EVQLQQSGPELVKPGASVKMSCKASGYTFTDYYMKWVKQSHGKSLEWIGDIIPSNGATFYNQKFKGKATLTVDRSSSTAYMHLNSLTSEDSAVYYCTRSHLLRASWFAYWGQGTLVTVSA
VL: DFVMTQSPSSLTVTAGEKVTMSCKSSQSLLNSGNQKNYLTWYLQKPGQPPKLLIYWASTRESGVPDRFTGSGSGTDFTLTISSVQAEDLAVYYCQNDYSYPYTFGGGTKLEIKR
notes: mouse monoclonal antibody (hybridoma ATCC HB-12009)
B2: the “MFI as percent of WT staining” value in experiment [1] was 1 % of WT MFI; in experiment [2], 1.4 % of WT MFI; in experiment [3], 3 % of WT MFI; in experiment [4], 1.4 % of WT MFI.
